Here are results for one substance from article PMC9529347.

In the experiment the target is SARS-CoV-1 RBD monomer (N321-P513) with C-terminal AVI-tag and 6xHIS-tag (SARS-CoV-1). Put plainly: SPR. A general note: SPR reads the build-up and loss of mass on a sensor chip optically.

Chain of soluble human ACE2, truncated ectodomain (S19-D615), C-terminal 6xHIS-tag (Q9BYF1 19-615): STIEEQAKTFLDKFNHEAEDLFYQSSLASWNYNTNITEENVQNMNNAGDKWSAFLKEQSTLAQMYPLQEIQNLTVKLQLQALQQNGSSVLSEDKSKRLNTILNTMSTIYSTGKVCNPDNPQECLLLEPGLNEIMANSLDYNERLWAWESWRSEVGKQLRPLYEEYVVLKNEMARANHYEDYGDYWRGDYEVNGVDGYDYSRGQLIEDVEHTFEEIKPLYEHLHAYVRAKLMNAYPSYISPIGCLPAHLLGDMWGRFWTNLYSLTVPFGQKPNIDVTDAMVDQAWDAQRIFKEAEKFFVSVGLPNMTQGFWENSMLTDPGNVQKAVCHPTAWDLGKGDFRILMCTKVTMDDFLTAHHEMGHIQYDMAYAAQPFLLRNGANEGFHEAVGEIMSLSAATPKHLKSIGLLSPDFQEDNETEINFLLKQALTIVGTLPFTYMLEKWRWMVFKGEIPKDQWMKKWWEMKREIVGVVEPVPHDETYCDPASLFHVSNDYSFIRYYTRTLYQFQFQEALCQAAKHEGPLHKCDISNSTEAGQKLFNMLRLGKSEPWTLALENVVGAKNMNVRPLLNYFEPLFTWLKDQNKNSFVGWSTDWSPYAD

For “soluble human ACE2, truncated ectodomain (S19-D615), C-terminal 6xHIS-tag (from UniProt Q9BYF1 19-615) (receptor)”, the Kd came out at 253 nM.

Usually Kd stands for the free concentration of one partner at which half of the binding sites on the other are occupied at equilibrium, for simple one-to-one binding. Low values mean tighter binding, high ones weaker binding.
